Laboratory results from patent publication US20240400722A1 (MILTENYI BIOTEC B V, published 2024).
Positions count from the first letter of the chain named. Numbers in names are those of the source.

B1: His tag-acVHH-WT anti-caffeine nanobody, soluble (VHH)
VHH: QVQLVESGGGLVQAGGSLRLSCTASGRTGTIYSMAWFRQAPGKEREFLATVGWSSGITYYMDSVKGRFTISRDKGKNTVYLQMDSLKPEDTAVYYCTATRAYSVGYDYWGQGTQVTVSS
notes: Expressed in E. coli; also called AB0; not shown: His tag
B2: M1 ΔAA displayed on yeast (VHH, not shown: large carriers; small tags and cut ends)
chain: B1 VHH with C22A, T50P, G52A, W53L, S54G, S55L, G56Q, I57S, C96A
notes: also called acVHH-M1 C22A C96A
B3: M1 ΔGW displayed on yeast (VHH, not shown: large carriers; small tags and cut ends)
chain: B1 VHH with C22G, T50P, G52A, W53L, S54G, S55L, G56Q, I57S, C96W
notes: also called acVHH-M1 C22G C96W
B4: M1 ΔAW displayed on yeast (VHH, not shown: large carriers; small tags and cut ends)
chain: B1 VHH with C22A, T50P, G52A, W53L, S54G, S55L, G56Q, I57S, C96W
notes: also called acVHH-M1 C22A C96W
B5: His tag-acVHH-V104D, soluble (VHH, not shown: small tags and cut ends)
VHH: B1 VHH with V104D
notes: also called AB1; Tag-V104D
B6: M1 ΔAV displayed on yeast (VHH, not shown: large carriers; small tags and cut ends)
chain: B1 VHH with C22A, T50P, G52A, W53L, S54G, S55L, G56Q, I57S, C96V
notes: also called acVHH-M1 C22A C96V
B7: M1 ΔVA displayed on yeast (VHH, not shown: large carriers; small tags and cut ends)
chain: B1 VHH with C22V, T50P, G52A, W53L, S54G, S55L, G56Q, I57S, C96A
notes: also called acVHH-M1 C22V C96A
B8: M1 ΔWA displayed on yeast (VHH, not shown: large carriers; small tags and cut ends)
chain: B1 VHH with C22W, T50P, G52A, W53L, S54G, S55L, G56Q, I57S, C96A
notes: also called acVHH-M1 C22W C96A
B9: M1 ΔFA displayed on yeast (VHH, not shown: large carriers; small tags and cut ends)
chain: B1 VHH with C22F, T50P, G52A, W53L, S54G, S55L, G56Q, I57S, C96A
notes: also called acVHH-M1 C22F C96A
B10: acVHH-V104D displayed on yeast (Aga2p-HA-tag-(Gly4Ser)3 linker-acVHH-V104D-c-myc tag) (VHH, not shown: large carriers; small tags and cut ends)
VHH: B1 VHH with V104D
B11: M1 ΔWP displayed on yeast (VHH, not shown: large carriers; small tags and cut ends)
chain: B1 VHH with C22W, T50P, G52A, W53L, S54G, S55L, G56Q, I57S, C96P
notes: also called acVHH-M1 C22W C96P

Legend:
[1] = molecular target: T1, acVHH-WT displayed on yeast (Aga2p-HA-tag-(Gly4Ser)3 linker-acVHH-WT-c-myc tag); assay: yeast surface display; 400 nM soluble acVHH-WT, caffeine titrated (data of FIG. 3I); mean ± S.D.
T1 construct: Yeast surface display fusion on S. cerevisiae EBY100
T1 sequence (chain, as listed by the source): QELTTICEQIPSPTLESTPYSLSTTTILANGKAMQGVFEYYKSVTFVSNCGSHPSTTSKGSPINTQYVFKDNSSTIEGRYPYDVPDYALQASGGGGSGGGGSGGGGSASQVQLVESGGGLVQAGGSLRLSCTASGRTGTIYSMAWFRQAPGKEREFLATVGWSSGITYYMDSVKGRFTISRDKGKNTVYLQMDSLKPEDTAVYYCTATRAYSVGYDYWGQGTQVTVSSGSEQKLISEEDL
Description: (§1) Measured with yeast display and normalized to maximum binding signal (n=3, averages±standard deviations).

[2] = molecular target: B5; assay: yeast surface display, flow cytometry (n=1)
[3] = molecular target: T2, dfM1-1 displayed on yeast (Aga2p-HA-tag-(Gly4Ser)3 linker-dfM1-1-c-myc tag); assay: yeast surface display; 400 nM soluble acVHH-V104D, caffeine titrated (data of FIG. 3I); mean ± S.D.
T2 construct: also called disulfide free M1 variant
Procedure: (§2) Expression of the variants on yeast was carried out in SG-CAA as described above.
as §1

[4] = molecular target: T3, dfM1-2 displayed on yeast (Aga2p-HA-tag-(Gly4Ser)3 linker-dfM1-2-c-myc tag); assay: as above
T3 construct: also called disulfide free M1 variant
Procedure: as §2, §1

[5] = molecular target: T4, acVHH-M1 displayed on yeast (Aga2p-HA-tag-(Gly4Ser)3 linker-acVHH-M1-c-myc tag); assay: as above
T4 construct: also called AB2
Procedure: as §2, §1

[6] = molecular target: B4; assay: yeast surface display, flow cytometry; soluble acVHH-V104D with and without 10 µM caffeine (n=1)
[7] = molecular target: B11; assay: as above
[8] = molecular target: B6; assay: as above
[9] = molecular target: B2; assay: as above
[10] = molecular target: B7; assay: as above
[11] = molecular target: B3; assay: as above
[12] = molecular target: B9; assay: as above
[13] = molecular target: B8; assay: as above
[14] = molecular target: T2, dfM1-1 displayed on yeast …; assay: yeast surface display titration with soluble acVHH-V104D, + caffeine (30 µM, data of FIG. 3H); mean ± S.D.
[15] = molecular target: T3, dfM1-2 displayed on yeast …; assay: as above
[16] = molecular target: T4, acVHH-M1 displayed on yeast …; assay: as above
[17] = molecular target: B10; assay: yeast surface display, flow cytometry; soluble acVHH-V104D with and without 10 µM caffeine
Procedure: (§3) The staining for flow cytometry characterization was performed in PBSA (PBS containing 15 μM bovine serum albumin). […] After a final washing step, the cells were analyzed with a CytoFLEX S flow cytometer (Beckman Coulter).

[18] = molecular target: T2, dfM1-1 displayed on yeast …; assay: yeast surface display titration with soluble acVHH-V104D, 30 µM caffeine, signal normalised to the maximum
[19] = molecular target: T3, dfM1-2 displayed on yeast …; assay: as above
[20] = molecular target: T4, acVHH-M1 displayed on yeast …; assay: as above
[21] = molecular target: T1, acVHH-WT displayed on yeast …; assay: yeast surface display, flow cytometry; soluble acVHH-V104D with 10 µM compound or without
Procedure: Expression of the acVHH variants on yeast was induced by culturing the cells in SG-CAA medium (20 g/L galactose, 2 g/L glucose, 6.7 g/L yeast nitrogen base, 5 g/L bacto casamino acids, 10.2 g/L Na₂HPO₄*7 H₂O, 8.56 g/L NaH₂PO₄*H₂O) overnight at 20° C. and 180 rpm. Detection of full-length proteins on the surface of the cells was carried out by staining the cells with anti-c-myc AlexaFluor 488 (9E10, Thermo Fisher).

[22] = molecular target: B5; assay: yeast surface display, flow cytometry
Procedure: as §3

B1
EC50,YSD (caffeine concentration for half-maximal dimerisation) [1]: 4300 nM

B2
binding result [2]: no binding

B3
binding result [2]: no binding

B4
binding result [2]: no binding

B5
EC50,YSD (caffeine concentration for half-maximal dimerisation) [3]: 83000 nM
EC50,YSD (caffeine concentration for half-maximal dimerisation) [4]: 124000 nM
EC50,YSD (caffeine concentration for half-maximal dimerisation) [5]: 104000 nM
binding result [6]: no binding (tested: 500 nM)
binding result [7]: no binding (tested: 500 nM)
binding result [8]: no binding (tested: 500 nM)
binding result [9]: no binding (tested: 500 nM)
binding result [10]: no binding (tested: 500 nM)
binding result [11]: no binding (tested: 500 nM)
binding result [12]: no binding (tested: 500 nM)
binding result [13]: no binding (tested: 500 nM)
Kd [14]: 18.8 nM
Kd [15]: 21.8 nM
Kd [16]: 30 nM
binding result [17]: no binding (tested: 500 nM)
EC50 (read off the curve) [18]: ~20 nM
EC50 (read off the curve) [19]: ~20 nM
EC50 (read off the curve) [20]: ~30 nM
binding result [21]: no binding (tested: 500 nM)

B6
binding result [2]: no binding

B7
binding result [2]: no binding

B8
binding result [2]: no binding

B9
binding result [2]: no binding

B10
binding result [22]: no binding

B11
binding result [2]: no binding
